# Laboratory results: article PMC3042988, “The activation mechanism of Irga6, an interferon-inducible GTPase contributing to mouse resistance against Toxoplasma gondii” (BMC Biology, 2011)
# B1: Irga6 (IIGP1), wild type, recombinant, GST cleaved off [mouse] / itself (parent)
# chain: MGQLFSSPKSDENNDLPSSFTGYFKKFNTGRKIISQEILNLIELRMRKGNIQLTNSAISDALKEIDSSVLNVAVTGETGSGKSSFINTLRGIGNEEEGAAKTGVVEVTMERHPYKHPNIPNVVFWDLPGIGSTNFPPNTYLEKMKFYEYDFFIIISATRFKKNDIDIAKAISMMKKEFYFVRTKVDSDITNEADGKPQTFDKEKVLQDIRLNCVNTFRENGIAEPPIFLLSNKNVCHYDFPVLMDKLISDLPIYKRHNFMVSLPNITDSVIEKKRQFLKQRIWLEGFAADLVNIIPSLTFLLDSDLETLKKSMKFYRTVFGVDETSLQRLARDWEIEVDQVEAMIKSPAVFKPTDEETIQERLSRYIQEFCLANGYLLPKNSFLKEIFYLKYYFLDMVTEDAKTLLKEICL
# Variants of: B1
# Experiment: light scattering (homo-oligomerisation)
# Settings: with itself; 80 µM Irga6; 10 mM GTP; 37°C; peak of the time course, at about 15 min; read off a plot
row,Variant,response
1,MGQLFSSPKSDENNDLPSSFTGYFKKFNTGRKIISQEILNLIELRMRKGNIQLTNSAISDALKKIDSSVLNVAVTGETGSGKSSFINTLRGIGNEEEGAAKTGVVEVTMERHPYKHPNIPNVVFWDLPGIGSTNFPPNTYLEKMKFYEYDFFIIISATRFKKNDIDIAKAISMMKKEFYFVRTKVDSDITNEADGKPQTFDKEKVLQDIRLNCVNTFRENGIAEPPIFLLSNKNVCHYDFPVLMDKLISDLPIYKRHNFMVSLPNITDSVIEKKRQFLKQRIWLEGFAADLVNIIPSLTFLLDSDLETLKKSMKFYRTVFGVDETSLQRLARDWEIEVDQVEAMIKSPAVFKPTDEETIQERLSRYIQEFCLANGYLLPKNSFLKEIFYLKYYFLDMVTEDAKTLLKEICL [chain 1 E64K],8.2 a. u.

# Same assay, conditions: with itself; 80 µM Irga6; 10 mM GTP; 37°C; peak of the time course, at about 10 min; read off a plot
row,Variant,response
1,MGQLFSSPKSDENNDLPSSFTGYFKKFNTGRKIISQEILNLIELRMRKGNIQLTNSAISDALKEIDSSVLNVAVTGETGSGKSSFINTLRGIGNEERGAAKTGVVEVTMERHPYKHPNIPNVVFWDLPGIGSTNFPPNTYLEKMKFYEYDFFIIISATRFKKNDIDIAKAISMMKKEFYFVRTKVDSDITNEADGKPQTFDKEKVLQDIRLNCVNTFRENGIAEPPIFLLSNKNVCHYDFPVLMDKLISDLPIYKRHNFMVSLPNITDSVIEKKRQFLKQRIWLEGFAADLVNIIPSLTFLLDSDLETLKKSMKFYRTVFGVDETSLQRLARDWEIEVDQVEAMIKSPAVFKPTDEETIQERLSRYIQEFCLANGYLLPKNSFLKEIFYLKYYFLDMVTEDAKTLLKEICL [chain 1 E97R],9 a. u.
